Results on three molecules are retold here after patent US20250387484A1 (US Dept. of Health and Human Services, published 2025).

Assay [1] addresses T1, cynomolgus CD25 (cynomolgus, UniProt H6WS54 22-213).
T1 construct: Analyte in the SPR assay; also called CD25 (sIL-2 Receptor α)
T1 sequence: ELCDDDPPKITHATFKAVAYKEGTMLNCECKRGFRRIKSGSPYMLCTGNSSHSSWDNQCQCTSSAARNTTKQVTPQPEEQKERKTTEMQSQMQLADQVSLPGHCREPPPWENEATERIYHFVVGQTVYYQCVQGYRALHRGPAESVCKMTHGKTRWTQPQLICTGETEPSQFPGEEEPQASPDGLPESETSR
Nature of the assay: SPR, Biacore 8K, antibody captured on Protein A chip, cynomolgus CD25 as analyte, 25 C. As to the method:
Running buffer was prepared by diluting one volume of 10× buffer with 9 volumes of degassed, filtered MilliQ water. Regeneration buffer (10 mM glycine) was prepared by dissolving glycine in MilliQ water and adjusting the pH to approximately 1.5-1.7. The assay was performed at 25° C. using HBS-EP+ as the running buffer. Antibodies were injected as capture on the Series S Sensor Chip Protein A. Antigens were diluted to multiple concentrations and injected over the surface of flow cell 1 and 2 as association phase, followed by injection of running buffer as dissociation phase.
All data were processed using the BIACORE™ 8K Evaluation software version 3.0. Flow cell 1 and blank injection of buffer in each cycle were used as double reference for Response Units (RU) subtraction. […] VH2+VL4 is a parental antibody (before affinity maturation).

In assay [2] the target is T2, human CD25 on KIT-225 cells (human, UniProt P01589 22-272).
T2 construct: whole, on cells; also called hCD25; IL-2Rα
T2 sequence (looked up): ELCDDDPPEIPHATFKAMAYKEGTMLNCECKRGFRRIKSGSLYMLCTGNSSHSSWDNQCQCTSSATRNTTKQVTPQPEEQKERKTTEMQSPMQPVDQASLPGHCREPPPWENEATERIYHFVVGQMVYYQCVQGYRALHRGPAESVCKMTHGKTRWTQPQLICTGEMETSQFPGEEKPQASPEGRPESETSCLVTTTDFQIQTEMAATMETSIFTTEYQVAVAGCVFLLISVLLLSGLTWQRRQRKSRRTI
Nature of the assay: flow cytometry (FACS) on CD25-expressing KIT-225 cells, secondary antibody, MFI against antibody concentration. As to the method: KIT-225 cells were washed once with FACS buffer, counted, and resuspended at a concentration of 1×10⁶/mL in FACS buffer. To 5 mL (5×10⁶ total) of cells, 25 μL of viable dye (Thermo Fisher, L34974, equivalent to 1:200 dilution) was added and mixed well. After incubation at 4° C. for 30 minutes, cells were washed twice with FACS buffer (200×g, 5 minutes each). Cells were resuspended in 5 mL FACS buffer and 100 μL was added per well, followed by addition of 100 μL diluted antibody. The solution was mixed by pipetting up and down and then incubated at 4° C. for 60 minutes, after which cells were washed twice with FACS buffer (200×g, 5 minutes each). Cells were resuspended in 100 μL FACS buffer. Fifty μL of secondary antibody was diluted in 5 mL FACS buffer (equivalent to 1:100 dilution), and 100 μL was added to each well and mixed by pipetting up and down. Following incubation at 4° C. for 30 minutes, cells were washed twice with FACS buffer (200×g, 5 minutes each), and resuspended in approximately 250 μL FACS buffer. FACS analysis was performed with Attune Flow cytometer using tube reading module.

B1: antibody 14569 (antibody, human IgG4 S228P, kappa, V domains shown)
VH: EVQLVESGGGLVQPGGSLRLSCAASGYWFSSWGMSWVRQAPGKGLELVSTINGYGDTTYYPDSVKGRFTISRDNSKNTLYLQMNSLRAEDTAVYYCARDRDYSNSYYYAHDYWGQGTLVTVSS
VL: EIVLTQSPATLSLSPGERATLSCRASSYVSFMHWLQQKPGQAPRPWIYATMNLASGVPARFSGSGSGTDYTLTISSLEPEDFAVYYCQQWSSNPPAFGGGTKVEIKR
As for B1, in assay [1], the Kd stood at 18.5 nM, the koff was 0.000714 s⁻¹ and the kon amounted to 38500 M⁻¹ s⁻¹. For the same molecule, the “EC50 (read off the curve)” value in assay [2] is roughly 0.5 µg/mL.

B2: antibody 14572 (antibody, human IgG4 S228P, kappa, V domains shown)
VH: EVQLVESGGGLVQPGGSLRLSCAASGYWFSSYGMSWVRQAPGKGLELVSTINGYGDTTYYPDSVKGRFTISRDNSKNTLYLQMNSLRAEDTAVYYCARDRDYTNSYYYAHDYWGQGTLVTVSS
VL: EIVLTQSPATLSLSPGERATLSCRASSYVSFMHWLQQKPGQAPRPWIYATMNLASGVPARFSGSGSGTDYTLTISSLEPEDFAVYYCQQWSSNPPAFGGGTKVEIKR
For the molecule B2, in assay [1], the affinity, expressed as Kd, was 19.6 nM; the koff was found to be 0.000679 s⁻¹; the kon came out at 34700 M⁻¹ s⁻¹. Besides, the “EC50 (read off the curve)” value in assay [2] is roughly 0.4 µg/mL.

B3: antibody 14564 (antibody, human IgG4 S228P, kappa, V domains shown)
VH: EVQLVESGGGLVQPGGSLRLSCAASGFTFSSWGMSWVRQAPGKGLELVSTINGYGDTTYYPDSVKGRFTISRDNSKNTLYLQMNSLRAEDTAVYYCARDRDYSNSYYYAHDYWGQGTLVTVSS
VL: EIVLTQSPATLSLSPGERATLSCRASSYVSFMHWLQQKPGQAPRPWIYATANLASGVPARFSGSGSGTDYTLTISSLEPEDFAVYYCQQWSSNPPAFGGGTKVEIKR
Consider B3, for which, in assay [1], binding was characterised by a dissociation constant (Kd) of 17.4 nM, the koff amounted to 0.000744 s⁻¹ and the kon is 42600 M⁻¹ s⁻¹. Further, in assay [2], the “EC50 (read off the curve)” value was roughly 0.6 µg/mL.
